Test results from publication PMC7033129, “Structural basis for substrate specificity and catalysis of α1,6-fucosyltransferase” (Nature Communications, 2020).

Molecular target: the molecule itself
Experiment: crystal structure; C2 crystals of HsFUT8 with 5 mM GDP and 5 mM G0, 1.95 Å; two molecules in the asymmetric unit, each forming a dimer with a molecule of the neighbouring asymmetric unit

B1: human α1,6-fucosyltransferase (HsFUT8), residues 68–575 (enzyme, UniProt Q9BYC5 68-575, looked up)
chain: RIPEGPIDQGPAIGRVRVLEEQLVKAKEQIENYKKQTRNGLGKDHEILRRRIENGAKELWFFLQSELKKLKNLEGNELQRHADEFLLDLGHHERSIMTDLYYLSQTDGAGDWREKEAKDLTELVQRRITYLQNPKDCSKAKKLVCNINKGCGYGCQLHHVVYCFMIAYGTQRTLILESQNWRYATGGWETVFRPVSETCTDRSGISTGHWSGEVKDKNVQVVELPIVDSLHPRPPYLPLAVPEDLADRLVRVHGDPAVWWVSQFVKYLIRPQPWLEKEIEEATKKLGFKHPVIGVHVRRTDKVGTEAAFHPIEEYMVHVEEHFQLLARRMQVDKKRVYLATDDPSLLKEAKTKYPNYEFISDNSISWSAGLHNRYTENSLRGVILDIHFLSQADFLVCTFSSQVCRVAYEIMQTLHPDASANFHSLDDIYYFGGQNAHNQIAIYAHQPRTADEIPMEPGDIIGVAGNHWDGYSKGVNRKLGRTGLYPSYKVREKIETVKYPTYPEAEK
notes: α1,6-fucosyltransferase (FUT8), human, amino acid residues 68–575 (coiled-coil, catalytic and SH3 domains); Expressed from pHLSec-12His-GFP-TEV-HsFUT8 after the vector's secretion signal; His-GFP cut off with TEV protease before crystallisation; Crystallised with GDP and the N-glycan G0; source: HEK293F, transfected, secreted into the supernatant, purified (His-Trap, TEV cleavage, second …)
- binding result: binds
